# From the DeepSol protein solubility set
# Assay: soluble on expression in E. coli; label from the status in PepcDB or PDB records
row,Sequence,soluble on expression in E. coli
1,MTDFTTDIAQALVRKEDLKEVFRTHLENAVNTLLATELTAFLDYEKYDRGGFGSGNSRNGTYPRTLHTEFGDLHLSIPRDRNGEFHQQTISPYKRSNDTLESFVIHMYQKGVTTGEITDLLERMYGHHYTPQTISNMTKTMEKQVEAFKARTLAKRYVCVYLDATFIAIKRDTVSKEAVYLAIGIQEDGTKEVLAYTIAPTESALVWKEVLEDLQNRGVEDVLLFVSDGLKGIVDSIQSLFPSSSYQLCCVHLSRNLAHKVRVSDRAEVCGDFKRVYRATSKQEGQKALDDFVTKWKKVYPRATKSLEENPFILTFYDFPQAIWRSIYSTNLIESFNKQLKKYSKRKEQFPNEPSIERFLVSQFEPYNQKFSTRCHLGFDLARAELVSMFERRK,soluble
2,MAHHHHHHMHDRIFAFAQQKVGLTAEQAECLSRKYWLNYGLSLYGYVKEYNVDAKEYSDFVHQCSYDKLHYNKPLIDMLLIMQYAPEAARGHDGPRSTNIDHLYYFTNANHSHARNVLDAQGLRPIFTRPRPVGLPVKENHPASEQAGAEDQVEWLGFSYEDQWQLTHPEIANKPMRQAYEAIYKAIEDQVAEDAALVATTTTAGSGSAFASSSASRNSDIAEEVKNKRARLRPENFVMVDDSLMNIDAPLELGWSAVWYAHDTQELPTDVKDNASAPLYAAAVASGRLQVIRNILELRAAVERIREVNSRSASS,not soluble
3,MRSQPTVSVIVPARNEAGNIAAAVERLPELGAETELIFVEGHSRDQTWETIEQTVAEYQGPLKLLACRQTGKGKADAVRLGFDKASGDILMILDADLTVQPEDLGHFYRAIASGRGEFINGSRLVYPRSRLAMPGLNTLANRTFALIFSFLLGQPLKDTLCGTKVLWKTDYDRVAAGRKYFGDFDPFGDFDLLFGAAKLGLEIVEVPVRYQERSYGSSNIAHVREGLILARMCLYAAGKLKFPLEHHHHHH,not soluble
4,MRLLHTMLRVGDLQRSIDFYTKVLGMKLLRTSENPEYKYSLAFVGYGPETEEAVIELTYNWGVDKYELGTAYGHIALSVDNAAEACEKIRQNGGNVTREAGPVKGGTTVIAFVEDPDGYKIELIEEKDAGRGLGN,soluble
5,MGSDKIHHHHHHVARRKEHTHEQIRHMAISAVVEHLQCHGVDNLSLRKVATTIGYVPSTLINIFGSYQYLLLAVSEQTLLQLAAQLQLIKPTTPTKTIEQMAIVYSQFALANRRCFRLVFELTMTDDQPLPAAHLGLIKSLFSDVEFQLSQYFPSACEQEVEMMSRVLWGGIHGLTCLSLDGKLFETQSCLQDMLTSHVSSYIDGMSIKRNSNAAN,not soluble
6,MINSSEGKSDNKIIEKATQILSKYPLCDSCLGRCFARLGYGLENKERGRAIKISLMLILDEKIKNHEIGDLSSIKRIMENLGPIAEKWYKLYFSSEFHSHPCYLCQNKIEDIKEDFSDKAFKLLSGLGVKSYVLGVELDEETKKKESKIIEEFTLMYYESIKHEIKREVGKTLSKRGYPPNMDNPEVEIVYRLSDLQVFIISKNIRTFYVYNRLNRNLPISSWFSKQGNEGLNTLLQRKIVFAFSEPTTVRILADYPIVIENEGRDKIDVGGYYIFKVMTVGKKELQAISAAKPTMRKYRVTVYSTSSLSDAIRVYGNIYDLYIDAKSFSELNEKLSKLKSQYEIIVLSVDLIDVKGRIKDIIENYLKSFLEHHHHHH,not soluble
7,MSLKITQIQAQNKNKNRRNVFVDGSYEFSCDMEIILKYKLKEGLEIDRTKLLQVIDQSKEEFAFRLALNYLSFKSRTSFEIYTYLLKKEYEEKIIEKVIEKLKYYRYVDDNQYVLNYIKTALAEGKKGKDRVQSDLINKKIPQDMIESHMHLFSCETNLEIAKELSNKYFKQNAHLPFNQFKNKLSQFLMRKGFNWEIINTCLNILEQDSEEGHHHHHH,soluble
8,MGVLPKINIVARQFRKCSMAATSTSTSSSDNSVASTAFVQEHVRQMQNDIMVQLIPQDESGAVENLADLNVTSNLGRMTHYYFQQGGKMLRPTVSLLMGNACNSAANRSISEEYLAMLSTERSGIAAHLSVCQNQYKIGMIAEMIHTASLVHDDVIDEANTRRGSASVNAVWGNKMSVLVGDFILARATQILCSIGKPNIISVMASIIEDLVLGEFMQMSTTPTDATPVDRMKAYIEKTHRKTASLFASSCRSAAILADGSDLKLHEIAFEYGRNLGIAFQLADDLLDFIATADEMGKPVAADLKLGLATAPVLYACEQYPELNTMLLRKFKHDGDAEKAREIVVNSDGMDKTRRLIDSYSQKAVEMASSLPNRNESTEHLIKLAMSQSDRKF,not soluble
9,MGKALVIVESPAKAKTINKYLGSDYVVKSSVGHIRDLPTSGSAAKKSADSTSTKTAKKPKKDERGALVNRMGVDPWHNWEAHYEVLPGKEKVVSELKQLAEKADHIYLATDLDREGEAIAWHLREVIGGDDARYSRVVFNEITKNAIRQAFNKPGELNIDRVNAQQARRFMDRVVGYMVSPLLWKKIARGLSAGRVQSVAVRLVVEREREIKAFVPEEFWEVDASTTTPSGEALALQVTHQNDKPFRPVNKEQTQAAVSLLEKARYSVLEREDKPTTSKPGAPFITSTLQQAASTRLGFGVKKTMMMAQRLYEAGYITYMRTDSTNLSQDAVNMVRGYISDNFGKKYLPESPNQYASKENSQEAHEAIRPSDVNVMAESLKDMEADAQKLYQLIWRQFVACQMTPAKYDSTTLTVGAGDFRLKARGRILRFDGWTKVMPALRKGDEDRILPAVNKGDALTLVELTPAQHFTKPPARFSEASLVKELEKRGIGRPSTYASIISTIQDRGYVRVENRRFYAEKMGEIVTDRLEENFRELMNYDFTAQMENSLDQVANHEAEWKAVLDHFFSDFTQQLDKAEKDPEEGGMRPNQMVLTSIDCPTCGRKMGIRTASTGVFLGCSGYALPPKERCKTTINLVPENEVLNVLEGEDAETNALRAKRRCPKCGTAMDSYLIDPKRKLHVCGNNPTCDGYEIEEGEFRIKGYDGPIVECEKCGSEMHLKMGRFGKYMACTNEECKNTRKILRNGEVAPPKEDPVPLPELPCEKSDAYFVLRDGAAGVFLAANTFPKSRETRAPLVEELYRFRDRLPEKLRYLADAPQQDPEGNKTMVRFSRKTKQQYVSSEKDGKATGWSAFYVDGKWVEGKK,soluble
10,MSLLSYQHIYHAGNLADVQKHALLALALDYLTRKDKPLSYLETHAGRGLYHLDAAEAVRTGEAGAGIGRAEGAAWFDPAHPMTRVLAAVRTDHGAMAYPGSPLVAAHLLRPGDMMHLAELHPQEHAALEQAMAGYPARVYRRDGVEMAQSLLPPEPRRGMMLIDPSYEVKSDYDRIPAVIAQLHRKWNVGVIALWYPILTDERHKVMLAALERLDLPRVLRHEVRFAPAREGHRMVGSGMFVINAPFGLADEAARLSGLFAQLEGHHHHHH,soluble
11,MIKGTGHMIVNIANDRGMSIDSIRKTIKESVLIAYKKYFGSNENAFIKFDDDTGDLSVYAKKKIVKEVKDSLLEILEKDISKENIVEGDYAYIEINPKVFDRLSIQVAKQRTKNDLQGIEDNEILSEFKSKLNKVVIGYVQQNRNGDLYVNLGNTDGIIPKKYQSPLEHHHHHH,not soluble
12,MTLPFKNGRGTMKINGVTIQMLPAASGDCIYLEFPDSDFRMLIDGGYAKTYQKYLKKFLLKLAAEGKRLNLIVVTHIDDDHISGIRALLKENGDSRNPKIIEIDEIWFNSLNQCITSRNAEQGMSFAVKIILKSMCSTDIDFECEYKKQNISYTNGKNLAELIQAGGYRWNASVVNNLVSKGQIVQFGDLKITILNPGIETLTKMGKKWLYHLKQINSNNIEITRDPLFDAAFEGFLLNNEKNIEFKQENISYSSEDLDWLDKYAEYKDIEMDSKITNCSSIAILIDYKDIKMLFPGDSPIQLFENELPKILDVIKLPHHGSAKNISLEFIKNTKVKYYLLSTDGKRYIDHPGKAVIANIIKNTGNNTELIKNYEIKFLKGLGKLDAED,not soluble
13,RLLLNGDGTPVGGAWNFDAENRKALPKGVAAPYPMRFSADAITRDVLTLVAERFASHYGSLDTFDYPVTQADAQALWEYFLDFGLAGFGDYQDAMATDEPFLFHARISAALNIGLLDLRQICSDVESAYWSGRVALNAAEGFIRQLIGWREYVRGVYWLKM,not soluble
14,MENRPVNIVLPKIENPILIEGYPGIGLVGHIAANFLAKELKMEVIGYVESSFIPPMSLILEGKPNPPLRFYGKDNIIIAVADIYLPPTLINEIAKEIANYLEQNKAEKVISLGGMGIGIFKDKFEVWGVGGTEEENKELQDLGVKILEYGSISGMSGKLLWEASRRGLKSYVILGETFGDRPDPRAAANVVEVLDRMLTLNVSVEPLLKEAEMIEEQLRKMHEQMEKARRSVEKQYETMYL,soluble
